This note sets out measurements from patent publication US9688743B2, “Optical biosensors” (Carnegie Mellon University, priority 2007, dated 2017).

A short description of data set [1]: Fluorogen binding affinity to soluble FBPs (MG-2p). The conditions noted are these: soluble versus yeast surface displayed FBP. The protocol: (§1) Binding affinity to soluble scFvs was determined by monitoring fluorogenic signal under conditions of ligand depletion using a homogenous 96 well microplate assay similar to above. 1 nM HL1.0.1-TO1, 10 nM L5-MG and 100 nM HL4-MG were each assayed with a 0.1 to 1000 nM range of fluorogen. Fluorescence of each FBP+dye sample was corrected by subtracting the fluorescence of a dye only sample. KD values were determined by non-linear regression using Graphpad Prism 4.0 and a ligand depletion algorithm. Y═(X+KD+R−√{square root over ((−X−KD−R)^2−4*X*R)})÷2 where X is the concentration of fluorogen, and R is the concentration of FBP/fluorogencomplex at the observed or extrapolated plateau at maximum fluorescence. Determination of Quantum Yields

A short description of data set [2]: Quantum yield and absorbance of FBP/MG-2p complex. It is filed as physicochemical. The protocol: (§2) FIG. 15 provides graphs illustrating absorbance of fluorogens and FBP/fluorogen complexes. Shown are samples used in quantum yield determinations. The absorbance of FBP/fluorogen complexes is obtained on a dual beam PerkinElmer Lambda 45 spectrophotometer using an equal concentration of FBP without fluorogen as the reference.
(§3) Quantum yields were determined by comparing integrated spectra of FBP/fluorogen complexes with those of reference dyes. Corrected emission spectra were taken at concentrations of FBP/fluorogen complex and reference dyes giving similar absorbances at the excitation wavelength, and the intensity integral computed. Provisional quantum yields were calculated by the relation:
(§4) [formula] where (phi is the quantum yield, I is the integrated intensity, A is the absorbance, η is the refractive index, and R designates the reference dye. Provisional quantum yields were adjusted to 1:1 complexation by using the solution KD of the complex to quantify the proportional occupancy at these concentrations (using Graphpad Prism 4.0 and the above ligand depletion algorithm).
A cyanic dye, Cy5.18 in PBS and Di-S—C2-(5) in MeOH were used as reference fluorophores for the determination of HL4-MG/MG-2p and L5-MG/MG-2p quantum yields. 2 μM scFv and 440 nM MG-2p were employed; emission spectra of respective complexes were taken in duplicate. […] These differences in absorbance magnitude underrepresent actual differences because of incomplete complexation at these concentrations. HL4MG/MG-2p and L5-MG/MG-2p quantum yields were respectively multiplied by 1.35 and 1.20 to correct for incomplete complexation. Fluorescein in 0.1 N NaOH and Rhodamine-6-G in MeOH were used as reference fluorophores for the determination of the quantum yield of HL1.0.1-TO1/TO12p. At the employed concentrations of 2 μM scFv and 520 nM TO1-2p, virtually complete complexation is expected, and no correction was used. Only slight changes in absorbance magnitude were noted.

Data set [3] can be described thus: Fluorogenic enhancement of purified FBP (MG-2p). Conditions: HL4-MG/MG-2p complex. It is filed as biochemical. The protocol:
(§5) Fluorogenic enhancement of HL4-MG, L5-MG and HL1.0.1-TO1 was measured in 96 well microplates on a Tecan Safire2 reader by comparison of the fluorescence of 500 nM free fluorogen with the fluorescence of a mixture of 500 nM fluorogen and 2 μM respective FBP. After a 1 hour incubation to allow complex formation, fluorescence was measured at the excitation and emission maxima of the fluorogen/FBP complexes. Fluorescence of yeast PBS buffer was subtracted from all samples. Fluorescence readings were stable for at least 16 hours.
(§6) Extended gain settings were used to increase numerical accuracy. For HL4-MG and L5MG, the differences in fluorescence between complexes and free dye exceeded the extended gain range of the instrument, so intermediate concentrations of Cy5 were also measured to allow interpolation between the extreme values. Two independent experiments, each with triplicate measurements, were carried out for each of the 3 FBPS; standard deviations for averaged values of FBPS, free fluorogen or PBS were less than 5%. The fold-enhancement values for HL4-MG and L5-MG were respectively multiplied by 1.35 and 1.20 to correct for partial complexation.

Data set [4] is described as follows: Cell surface complementation, fluorescence spectrometer on cell suspensions. Conditions: for Fluorescence: 1 μM TO1-2P, excitation 506 nm, emission 610 nm, corrected for buffer+dye and no-dye samples. It is filed as cell-based, yeast. The procedure: (§7) In the following experiments three classes of yeast cells were generated by molecular biology methods known in the art. One class of yeast expressed only the heavy chain of the scFv on the surface. A second class expressed only the light chain of the scFv on its surface. The third class expressed both the heavy and light chains on the surface. When the fluorescent reporter TO1 was added independently to solutions containing the three classes of yeast cells, only the third class that expressed both heavy and light chains at a high surface density produced a fluorescence increase, as shown below. Specifically, two vectors, pPNL6 and pPNL6URA3 were prepared, where the TRP1 gene of pPNL6 was replaced with the URA3 gene of S. cerevisiae. This approach allowed selection for both plasmids in a single cell. Fragments carrying scFv1, scFv1 HO (heavy only chain), or scFv1 LO (light only chain) were cloned into each of the two vectors.
JAR200 yeast cells were transformed with each single plasmid as well as both scFv1 HO (PNL6)+scFv1 LO (PNL6URA3) or both scFv1 HO (PNL6URA3)+scFv1 LO (PNL6). Analysis by FACS and TECAN followed induction of the cells. In both cases, 1 μM TO1-2P was used.
In the second approach, a fluorescence spectrometer was used to quantify the fluorescence from suspensions of cells. The fluorescence excitation wavelength was 506 nm and the emission wavelength was 610 nm. Values presented below are corrected from raw data by subtracting out the values for (buffer+dye) and induced (no dye) samples. They were then corrected for the per cent of the population that was induced, as determined by the flow cytometry analysis.

Data set [5] is described as follows: Cell surface complementation, flow cytometry of TO1-2p fluorescence. Conditions: 1 μM TO1-2P, induced JAR200 yeast, emission at 530. Format: cell-based. The protocol:
as §7, with “vectors. […]” for “vectors.”
In the first approach, flow cytometry was used to assay cellular fluorescence of the three classes of yeast in the presence and absence of TO 1. The population of induced cells was analyzed by measuring fluorescence emitted at 685 from a signal caused by protein labeled by anti-C-myc Alexa 647. […] For cells that expressed full length fragments the TO1-2p fluorescence was observed as emission at 530.

Data set [6] in a line: Fluorogen binding affinity to soluble FBPs (TO1-2p). Conditions: soluble FBP, in words. The protocol: as §1
Data set [7] in a line: Fluorogen binding affinity to yeast surface displayed FBPs (TO1-2p). The procedure: Cell surface KD values were determined on Prism Graphpad Prism 4.0 software by non-linear regression analysis using a one-site binding algorithm for saturation binding: Y═Bmax*X═(KD+X) where X is the concentration of fluorogen. Determination of Fluorogen Binding Affinity to Soluble FBPs

Data set [8] in a line: Quantum yield and absorbance of FBP/TO1-2p complex. It is filed as physicochemical. The protocol:
as §2, §3, §4
A cyanic dye, Cy5.18 in PBS and Di-S—C2-(5) in MeOH were used as reference fluorophores for the determination of HL4-MG/MG-2p and L5-MG/MG-2p quantum yields. […] These differences in absorbance magnitude underrepresent actual differences because of incomplete complexation at these concentrations. […]

A short description of data set [9]: Spectral characterization of yeast surface displayed FBPs (TO1-2p). Format: physicochemical. Conditions: cell surface; for excitation maximum: free dye absorbance 504 nm. The procedure: 10^6 cells in 200 μl yeast buffer were assayed with 100-1000 nM MG-2p or TO1-2p. Spectra were corrected by subtraction of fluorescence of control cells not expressing scFvs.

Data set [10] is described as follows: Fluorogenic enhancement of purified FBP (TO1-2p). Format: biochemical. Conditions: direct measurement. The protocol:
as §5, §6

By Kd is commonly meant the free concentration of one partner at which half of the binding sites on the other are occupied at equilibrium, for simple one-to-one binding. Read a low Kd as higher affinity.

B1: L5-MG: malachite green binding light chain only FBP, SEQ ID NO: 13 (antibody)
VL: SASTGSFDSWGQGTLVTVSSGILGSGGGGSGGGGSGGGGSQAVVTQEPSVTVSPGGTVILTCGSSTGAVTSGHYANWFQQKPGQAPRALIFETDKKYSWTPGRFSGSLLGAKAALTISDAQPEDEAEYYCLLSDVDGYLFGGGTQLTVLSGILEQKLISEEDL
modifications: scFv sequence, (GILEQKLISEEDL at end of sequence is derived from a vector)
Regarding B1, the “reduced affinity for MG-2p in solution as compared to surface display” value in data set [1] was 265 fold.

B2: HL4-MG: malachite green binding scFv, SEQ ID NO: 11 (protein)
scFv: QVQLVESEGGLVQPGGSLRLSCAASGFTFSSYEMNWVRQAPGKGLEWVSRIDGDGSSTNYADSVKGRFTISRDNAKSTLYLQMNSLRAEDTAVYYCTRARYFGSVSPYGMDVWGQGTTVTVSSGILGSGGGGSGGGGSGGGGSDIRVTQSPSSVSASVGDRVTISCRASQGIATWLGWYQQKPGKPPQLLIYSASTLQTGVPSRFSGSGSGTDFTLTISSLQPEDVATYYCQEGSTFPLTFGGGTKVDIKSGILEQKLISEEDL
modifications: scFv sequence, (GILEQKLISEEDL at end of sequence is derived from a vector)
For B2, in data set [2], the “absorbance of FBP/fluorogen relative to free MG-2p” value is “more than 1.4 fold”, the extinction coefficient result was “about 105,000 M^−1 cm^−1” and the quantum yield came out at 0.17. Besides, the “reduced affinity for MG-2p in solution as compared to surface display” value in data set [1] stood at 185 fold. Also, the “fluorescence enhancement as compared to free fluorogen” value in data set [3] is listed as “about 18,000 fold”.

B3: HO PNL6: scFv1 heavy chain only, vector pPNL6, displayed on yeast (antibody, V domains shown)
VH: QVQLVESEAEVKKPGSSVKVSCKASGGTFSSYAISWVRQAPGQGLEWMGGIIPIFGTANYAQKFQGRVTITADESTSTAYMELSSLRSEDTAVYYCVLLDTTMVTGYYFDYWGQGTLVTVSS
As to B3, in data set [4], the Fluorescence was found to be 135. The “F/ (% Pop IND)” value in data set [4] (fluorescence corrected for per cent of population induced) worked out at 160. The “MEAN 530 SIGNAL” value in data set [5] is 88.

B4: HO PNL6URA3: scFv1 heavy chain only, vector pPNL6URA3, displayed on yeast (antibody, V domains shown)
VH: B3 VH
Take B4: the Fluorescence in [4] is −605. For the same molecule, in data set [5], the “MEAN 530 SIGNAL” value was 82.

B5: HL1.0.1-TO1: affinity matured fluorogen binding scFv, SEQ ID NO: 7 (protein)
scFv: QVQLVESEAEVKKPGSSVKVSCKASGGTFSSYAISWVRQAPGQGLEWMGGTIPIFGTADYAQEFQGRVTITTDESTSTAYMELSGLRSEDTAVYYCVLLGTTMVTGHYFDYWGQGTLVTVSSGILGSGGGGSGGGGSGGGGSNFMLTQPPSASGTPGQSVTISCSGSGSNIGNNKVNWYQQLPGTAPKLLIYSNNQRPSGVPDRFSGSKSGTSASLAISGLQSEDEADYYCAAWDDGLSGYVFGTGTKLTVL
modifications: scFv sequence
B5: the KD in solution entry in data set [6] is listed as “very similar to that observed on the cell surface”. The molecule also gave a Kd in data set [7] (yeast cell surface displayed FBP, fluorogen TO1-2p) of approximately 3 nM. In data set [8], the extinction coefficient was 60,000 M^−1 cm^−1 and the quantum yield is 0.47. In addition, in [9], the emission maxima was 530 nm and the excitation maximum turned out to be 509 nm. For the same molecule, in [10], the “fluorescence increase of TO1-2p upon binding” value is listed as “about 2,600 fold”.

B6: HL2-TO1: fluorogen binding scFv, SEQ ID NO: 5 (protein)
scFv: QVQLQQGGAGLLKPSETLSLTCGVYGGSFSGYYWSWIRQSPGKGLEWIGEINHSGSANYNPSVKSRVTISVDTSKNQFSLQLSSVTAADTAVYYCARDRAVLTGEGWYFDLWGRGTLVTVSSGILGSGGGGSGGGGSGGGGSSYELTQPPSVSVSPGQTASITCSGDKLGDKYTCWYQQKPGQSPVLVLYEDTKRPSGIPERFSGSNSGNTATLTISRVEAGDEADYYCQLWDSSSDHYVFGSGTKLTVL
modifications: scFv sequence
For the molecule B6, the dissociation constants entry in [7] (yeast surface displayed FBP, TO1-2p, in words) is “high nanomolar range”. In data set [9], this molecule yielded an emission maxima of 550 nm and an excitation maximum of 515 nm.
